What was measured:
[1] = target: E. coli produced recombinant human tissue factor rhTF243, purified and lipidated (human) (UniProt P13726); assay: cell-based or functional assay
[2] = target: lettuce-produced recombinant human tissue factor, full length (263 aa), purified and lipidated (human) (UniProt P13726); assay: cell-based or functional assay

B1: Sunol-cH36 (antibody, from another filing, V domains shown)
VH: EIQLQQSGPELVKPGASVQVSCKTSGYSFTDYNVYWVRQSHGKSLEWIGYIDPYNGITIYDQNFKGKATLTVDKSSTTAFMHLNSLTSDDSAVYFCARDVTTALDFWGQGTTLTVSS
VL: DIQMTQSPASQSASLGESVTITCLASQTIDTWLAWYQQKPGKSPQLLIYAATNLADGVPSRFSGSGSGTKFSFKISSLQAEDFVNYYCQQVYSSPFTFGAGTKLELK
B1 showed a clot time in prothrombin time (PT) assay, human plasma, 10 nM lipidated rhTF, at antibody concentration of 500 nM [1] of 48 s, a clot time in prothrombin time (PT) assay, human plasma, 10 nM lipidated rhTF, without antibody (0 nM) [1] of 25 s and a clot time in prothrombin time (PT) assay, human plasma, 10 nM lipidated rhTF, at antibody concentration of 500 nM [2] of 42 s. The clot time in prothrombin time (PT) assay, human plasma, 10 nM lipidated rhTF, without antibody (0 nM) [2] was 25 s.

Source: patent publication US20070292490A1
